Source: article PMC7538587
Several values for one entry are separate records, joined by “and”; a condition that tells them apart may be missing. Identical values can stand only once.

Legend:
[1] = target: SALT protein (Oryza sativa L. (Pusa basmati-1)) (UniProt A2WPN7); test: SAXS; SALT freshly eluted from gel filtration, 5, 11 and 22 mg/ml, 20 °C; molecular weight from SAXS about 32.2-33.4 kDa
[2] = target: SALT protein (Oryza sativa L. (Pusa basmati-1)) (UniProt A2WPN7); test: SEC; Superdex 200 10/300 GL, 200 µl of 5 mg/ml SALT, 20 mM each of mannose and galactose in sample and buffer; calibrated with marker proteins
[3] = target: SALT protein (Oryza sativa L. (Pusa basmati-1)) (UniProt A2WPN7); test: SDS-PAGE without heat denaturation; purified SALT, 1 mg/ml, 12% gel, with SDS and BME, not heated; confirmed by immunoblotting

SALT protein (from UniProt A2WPN7 1-145) (natural protein)
stoichiometry N [1]: 2 | stoichiometry N [2]: 2 | stoichiometry N [3]: 2 and 4
